Test results published in patent US20210061908A1 (IOMX THERAPEUTICS, published 2021).
Changes are numbered by the printed parent chain.

T1: extracellular domain (ECD) of human IGSF11 (VSIG3), biotinylated (human, UniProt Q5DX21 23-241, biotinylated (site not stated))
T1 construct: also called human IGSF11 protein
T1 sequence: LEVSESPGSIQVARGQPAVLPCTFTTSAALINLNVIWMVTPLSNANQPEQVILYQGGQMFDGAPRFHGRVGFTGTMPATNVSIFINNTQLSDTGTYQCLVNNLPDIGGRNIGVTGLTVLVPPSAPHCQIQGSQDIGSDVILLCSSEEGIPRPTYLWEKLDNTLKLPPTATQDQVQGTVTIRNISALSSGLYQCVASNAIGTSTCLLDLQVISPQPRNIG

T2: extracellular domain (ECD) of murine IGSF11, biotinylated (mouse, UniProt P0C673 23-240, biotinylated (site not stated))
T2 construct: also called Mouse IGSF11; murine IGSF11 protein
T2 sequence: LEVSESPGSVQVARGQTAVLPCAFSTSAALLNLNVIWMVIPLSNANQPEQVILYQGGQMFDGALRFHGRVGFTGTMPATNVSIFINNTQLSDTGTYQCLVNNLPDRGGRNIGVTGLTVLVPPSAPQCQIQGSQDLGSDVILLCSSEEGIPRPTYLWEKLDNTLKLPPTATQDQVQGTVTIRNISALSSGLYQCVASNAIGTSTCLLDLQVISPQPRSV

B1: A-016 (scFv format) (scFv, V domains shown)
VH: QVQLQESGAEVKKPGASVKVSCKASGYTFTGYYMHWVRQAPGQGLEWMGGIIPIFGTANYAQKFQGRVTITADESTSTAYMELSSLRSEDTAVYYCAGAGMELTRSGAYYYYGMDVWGQGTTVTVSS
VL: QSALTQPASVSGSPGQSITISCTGTSSDIGGYTFVSWYQQHPGKAPKVMIHDVNNRPSGISNRFSGSKSGNTASLTISGLQAEDEADYYCSSVTSTNTYVFGTGTKVTVL
notes: scFv
B2: A-023 (scFv format) (scFv, V domains shown)
VH: QVQLVQSGAEVKKPGSSVKVSCKASGGTFSSYAISWVRQAPGQGLEWMGGIIPIFGTANYAQKFQGRVTITADESTSTAYMELSSLRSEDTAVYYCARPKYSSGWFYYYGMDVWGQGTTVTVSS
VL: QSVLTQPPSVSAAPGQKVTISCSGSSSNIGNNYVSWYQQLPGTAPKLLIYDNNKRPSGIPDRFSGSKSGTSATLGITGLQTGDEADYYCGTWDSSLSVVFGGGTKLTVL
notes: scFv
B3: A-015 (scFv format) (scFv, V domains shown)
VH: not shown
VL: QPVLTQSPSASASLGASVKLTCTLSSGHTNYAIAWRQQQPGKAPRYLMLLNSDGSHTRGGGIPDRFSGSSSGAERYLTISSLQSEDEADYYCMIWHNNAWVFGGGTKLAVL
notes: scFv
B4: A-037 (scFv format) (scFv, V domains shown)
VH: QVQLVQSGAEVKKPGASVKVSCKASGYTFTGYYMHWVRQAPGQGLEWMGWINPNSGNTGYAQKFQGRVTMTRNTSISTAYMELSSLRSEDTAVYYCARGGQQQLVLDDYWGQGTLVTVSS
VL: NFMLTQPHSVSESPGKTVTISCTGSSGSIASNYVQWYQQRPGSAPTTVIYEDNQRPSGVPDRFSGSIDSSSNSASLTISGLKTEDEADYYCQSYDSSNQRVFGGGTKLTVL
notes: scFv
B5: A-019 (scFv format) (scFv, V domains shown)
VH: B4 VH
VL: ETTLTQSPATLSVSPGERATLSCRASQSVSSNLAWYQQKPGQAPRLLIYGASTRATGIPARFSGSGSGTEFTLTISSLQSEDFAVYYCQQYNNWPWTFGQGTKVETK
notes: scFv
B6: A-017 (scFv format) (scFv, V domains shown)
VH: B4 VH
VL: DIVLTQSPASLSASVGDRITITCQASQDIRHHLNWFQHKPGKAPKLLISDSSNLETGVPSRFSGSGSGTDFSFTISRLQPEDIATYYCQQYDSLPRTFGQGTKLEIK
notes: scFv
B7: A-012 (scFv format) (scFv, V domains shown)
VH: EVQLLESGGGLIQPGGSLRLSCAVSGFTVSSNYMSWVRQAPGKGLEWVSVIYSGGSTYYADSVKGRFTISRDNSKNTLYLQMNSLRAEDTAVYYCARGNPYYYGDLQVNFDYWGQGTLVTVSS
VL: QAVVTQEPSLTVSPGGTVTLTCASSTGAVTSGYYPNWFQQKPGQAPRALIYSTSNKHSWTPARFSGSLLGGKAALTLSGVQPEDEAEYYCLLYYGGAWVFGGGTKLTVL
notes: scFv
B8: A-006 (scFv format) (scFv, V domains shown)
VH: B7 VH with L5V, V24A
VL: B7 VL with A48P, E83D, A97D
notes: scFv
B9: A-005 (scFv format) (scFv, V domains shown)
VH: B7 VH with L5V, V24A
VL: B7 VL with G16E, K41R, H57D
notes: scFv
B10: A-002 (scFv format) (scFv, V domains shown)
VH: B7 VH with L5V, V24A
VL: B7 VL with L20P, A23G, Y33N, Y34L, F64I
notes: scFv
B11: A-013 (scFv format) (scFv, V domains shown)
VH: B7 VH with L5V, V24A
VL: B7 VL with G32A, E87D
notes: scFv
B12: A-009 (scFv format) (scFv, V domains shown)
VH: QVQLVQSGAEVKKPGSSVKVSCKASGGTFSSYAISWVRQAPGQGLEWMGGIIPIFGTANYAQKFQGRVTITADESTSTAYMELSSLRSEDTAVYYCARGRGFGELYFDYWGQGTLVTVSS
VL: ETTLTQSPATLSVSPGERATLSCRASQGVRSNIAWYQQKPGQAPRLLIYDSSTRATGIPARFSGSGSGTEFTLTISSLQSEDFAVYSCQQYKNWPRTFGQGTKVEIK
notes: scFv
B13: A-011 (scFv format) (scFv, V domains shown)
VH: QVQLVESGGGVVQPGRSLRLSCAASGFTFSSYAMHWVRQAPGKGLEWVAVISYDGSNKYYADSVKGRFTISRDNSKNTLYLQMNSLRAEDTAVYYCAEGGALNYYGMDVWGQGTTVTVSS
VL: SSELTQDPGVSVALGQTVRITCQGDSLRHFYATWYQQKPGQAPILVIYGKNNRPSGIPDRFSGSSSEDTASLTITGAQAEDEADYYCQSRDPRNNHLIFGGGTKLIVL
notes: scFv
B14: A-010 (scFv format) (scFv, V domains shown)
VH: QVQLVQSGAEVKKPGASVKVSCKASGYTFTSYGISWVRQAPGQGLEWMGWISAYNGNTNYAQKLQGRVTMTTDTSTSTAYMELRSLRSDDTAVYYCARVPAWSGQFDYWGQGTLVTVSS
VL: QSALTQPASVSGSPGQSITISCTGSSSDVGGYNYVSWYQQYPGKAPKLMIYDVRSRPSGVSNRFSGSKSGNTASLTISGLQAEDEADYYCTSYTSSNTLVIFGGGTKVTVL
notes: scFv
B15: A-024 (scFv format) (scFv, V domains shown)
VH: QMQLVQSGAEVKKPGSSVKVSCKASGGTFSSYAISWVRQAPGQGLEWMGWISAYNGNTNYAQKLQGRVTMTTDTSTSTAYMELRSLRSDDTAVYYCASLGSYGYTGAFDIWGQGTMATVSS
VL: B14 VL with S25T, Y41H, D52E, R54S, S55N, T91S, N97S, I101V, V108L
B16: A-021 (scFv format) (scFv, V domains shown)
VH: B14 VH
VL: QSALTQPASVSGSPGQSITISCTGTSSDVGGYNYVSWYQQHPGKAPKLMIYEVTNRPSGVSDRFSGSKSANTASLTISELQAEDEAVYYCNSYTSGPTYVLFGGGTQLTVL
notes: scFv
B17: A-022 (scFv format) (scFv, V domains shown)
VH: EVQLLESGPGLVKPSQTLSLTCTVSGGSISSGGYYWSWIRQHPGKGLEWIGYIYYSGSTYYNPSLKSRVTISVDTSKNQFSLKLSSVTAADTAVYYCARASRSTDYYFDYWGQGTLVTVSS
VL: QPGLTQPPSMSYGLGQTATLTCTGNRNNIGDQGAAWLQQHQGHPPKLLSYRNNNGPSGISERLSASRSGNTASLTISGLQPEDEADYYCSAWDSSLRAWVFGGGTKLTVL
notes: scFv
B18: A-007 (scFv format) (scFv, V domains shown)
VH: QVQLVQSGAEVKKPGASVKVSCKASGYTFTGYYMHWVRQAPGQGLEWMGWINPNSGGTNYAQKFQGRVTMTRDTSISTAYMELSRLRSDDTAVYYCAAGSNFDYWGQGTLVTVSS
VL: QSALTQPASVSGSPGQSITIACTGSSSDIGSFSYVSWYQQRPGKAPTLIIYGVNNRPLGVSRRFSGSKSGNTASLSISGLQAEDEADYYCSSYTRRSTVIFGGGTKLTVL
notes: scFv
B19: A-014 (scFv format) (scFv, V domains shown)
VH: QVQLVQSGAEVKKPGASVKVSCKASGYTFNDYYIHWVRQAPGQGLEWMGWFNPSTGGANYAQKFQGRVTMTRDTSISTAYLEVSSLRSDDTAVYYCARGNSPDLDYWGQGTLVTVSS
VL: DIQMTQSPDSLTVSLGERATINCKSSQSLLHSSNNKNYLAWYQQRPGQPPKLLIYWASTRQSGVPDRFSGSGSGTDFTLTINSLQADDMAVYYCQQYYTTTPNTFGQGTKLEIK
notes: scFv
B20: A-008 (scFv format) (scFv, V domains shown)
VH: QLQLQESGPGLVKPSETLSLTCTVSGGSISSSGYYWGWIRQPPGKGLEWIGSIYYSGSTYYNPSLKSRVTISVDTSKNQFSLKLSSVTAADTAVYYCARHRVRFGEFDAFDIWGQGTMVTVSS
VL: QAVLTQPPSVSGAPGERVTLSCTGTSSNVGADFDVHWYQQFPGTAPRLLIFGSDNRPSGVPDRFSGSKSGTSASLAITGLQVEDEADYYCQAYDVRLSGWVFGGGTKLTVL
notes: scFv
B21: A-003 (scFv format) (scFv, V domains shown)
VH: VQLVQSGAEVKKPGSSVKVSCKASGGTFSSYAISWVRQAPGQGLEWMGGIIPIFGTANYAQKFQGRVTITADESTSTAYMELSSLRSEDTAVYYCASPRIQLWAAGGFDYWGQGTLVTVSS
VL: QSALTQPASVSGSPGQSITISCTGTSSDVGGYNLVSWYQQHPGKAPKLMIYDVSNRPSGVSNRFSGSKSGNTASLTISGLQAEDEADYYCSSFTTSTTLVFGGGTKLTVL
notes: scFv

What follows are binders tested against T1, extracellular domain (ECD) of human … (assay: ELISA, scFv; RFU grade (*** >1.0, ** 0.5-1.0, * 0.1-0.5)).

Row | Binder | relative fluorescent units (RFU), ELISA [rfu]
1 | B1 | > 1
2 | B2 | 0.5 to 1
3 | B3 | 0.5 to 1
4 | B4 | 0.1 to 0.5
5 | B5 | > 1
6 | B6 | 0.5 to 1
7 | B7 | 0.5 to 1
8 | B8 | 0.5 to 1
9 | B9 | 0.5 to 1
10 | B10 | 0.5 to 1
11 | B11 | 0.5 to 1
12 | B12 | 0.5 to 1
13 | B13 | 0.1 to 0.5
14 | B14 | 0.5 to 1
15 | B15 | 0.5 to 1
16 | B16 | 0.5 to 1
17 | B17 | 0.5 to 1
18 | B18 | 0.5 to 1
19 | B19 | 0.5 to 1
20 | B20 | > 1
21 | B21 | 0.1 to 0.5

Each binder was assayed against T2, extracellular domain (ECD) of murine … in the same assay as above.

Row | Binder | relative fluorescent units (RFU), ELISA [rfu]
22 | B1 | 0.5 to 1
23 | B2 | 0.1 to 0.5
24 | B3 | 0.5 to 1
25 | B4 | 0.1 to 0.5
26 | B5 | 0.5 to 1
27 | B6 | 0.1 to 0.5
28 | B7 | 0.5 to 1
29 | B8 | 0.5 to 1
30 | B9 | 0.1 to 0.5
31 | B10 | 0.1 to 0.5
32 | B11 | 0.5 to 1
33 | B12 | 0.1 to 0.5
34 | B13 | > 1
35 | B14 | 0.5 to 1
36 | B15 | 0.1 to 0.5
37 | B16 | 0.1 to 0.5
38 | B17 | > 1
39 | B18 | 0.5 to 1
40 | B19 | 0.1 to 0.5
41 | B20 | > 1
42 | B21 | 0.1 to 0.5
